From patent publication US9938510B2, “Photobacterium sp. alpha-2-6-sialyltransferase variants” (The Regents of the University of California, priority 2014, dated 2018)

Columns and labels:
[1] = Expression and Ni2+-NTA purification of soluble recombinant protein; SDS-PAGE of lysates; design: species or system Escherichia coli; settings: for expression level, purified by Ni2+-NTA column: per liter of Escherichia coli culture, repeated expression in duplicates or triplicates
Method: The plasmids containing mutant genes were transformed into Escherichia coli BL21 (DE3). The Escherichia coli cells were cultured in LB-rich media (10 g L^−1 tryptone, 5 g L^−1 yeast extract, and 10 g L^−1 NaCl) supplemented with ampicillin (100 μg mL^−1). Overexpression of the mutants was achieved by adding 0.3 mM of isopropyl-1-thio-β-D-galactopyranoside (IPTG) to the Escherichia coli culture when its OD600 nm reached 0.8. The induced culture was incubated at 20° C. for 20 h with vigorous shaking at 250 rpm in a C25KC incubator shaker (New Brunswick Scientific, Edison, N.J.). His6-tagged mutant proteins were purified from the cell lysate. To obtain cell lysate, the cell pellet harvested by centrifugation at 4000 rpm for 2 h was resuspended in 20 mL (for cells obtained from one liter culture) of lysis buffer (pH 8.0, 100 mM Tris-HCl containing 0.1% Triton X-100). Lysozyme (50 μg mL^−1) and DNaseI (3 μg mL^−1) were added to the resuspended cells followed by shaking at 37° C. for 60 min. The lysate was obtained as the supernatant after centrifugation at 11,000 rpm for 20 min. Purification of His6-tagged proteins from the lysate was achieved using 10 mL column packed with Ni^2+-NTA agarose. The column was pre-equilibrated with 8 column volumes of binding buffer (5 mM imidazole, 0.5 M NaCl, 50 mM Tris-HCl pH 7.5). After loading the sample, the column was washed with 8 column volumes of the binding and 8 column volumes of washing buffer (20 mM imidazole, 0.5 M NaCl, 50 mM Tris-HCl pH 7.5). Protein was eluted using 8 column volumes of the elute buffer (200 mM imidazole, 0.5 M NaCl, 50 mM Tris-HCl pH 7.5). The fractions containing the purified enzyme were collected and stored at 4° C. Protein concentrations were quantified by bicinchoninic acid (BCA) protein assay kit according to manufacturer's instruction using bovine serum albumin (BSA) as the protein standard. The wild-type enzyme and A366G mutant were expressed, purified, and quantified in duplicates or triplets for at least three times. […]

[2] = One-pot two-enzyme (OP2E) sialylation with NmCSS, GalNAcαThr as acceptor; assay type: biochemical; settings: 2.5 equivalents of Neu5Ac and 5.0 equivalents of CTP
Text: (§1) White bars: GalNAcαSer was used as an acceptor with 1 equivalent of Neu5Ac and 1.5 equivalents of CTP. Grey bars: GalNAcαSer was used as an acceptor with 2.5 equivalents of Neu5Ac and 5.0 equivalents of CTP. Black bars: GalNAcαThr was used as an acceptor with 2.5 equivalents of Neu5Ac and 5.0 equivalents of CTP.
In this system, CTP and Neu5Ac were used by NmCSS for the formation of CMP-Neu5Ac in situ (see also, Yu and Chen, et al. Bioorg. Med. Chem. 2004, 12, 6427-6435). CMP-Neu5Ac was used as the donor substrate for Psp26ST(15-501)-His6 or its mutants. […] For example, using 1 equivalent of Neu5Ac and 1.5 equivalents of CTP in the one-pot two-enzyme (OP2E) reaction (white bars in FIG. 6) improved the GalNAcαSer α2-6-sialylation reaction yields from less than 6% (1 equivalent CMP-Neu5Ac was used) (FIG. 5B) to 32-51% for W365A, W365G, W365S mutants. Similarly, the OP2E reaction improved the GalNAcαSer α2-6-sialylation reaction yields from 40% and 37% to 75% and 67% for A366G mutant and the wild-type enzyme, respectively. Increasing the concentrations of Neu5Ac and CTP to 2.5 and 5.0 equivalents further improved the reaction yields to more than 67% for Psp26ST(15-501)-His6 and its mutants ([…]). […] Therefore, in situ generation of CMP-Neu5Ac, the sugar nucleotide donor for sialyltransferases, was proven an efficient method to enhance the yields for sialylation reactions catalyzed not only by the wild-type enzymes but also sialyltransferase mutants.

[3] = One-pot two-enzyme (OP2E) sialylation with NmCSS, GalNAcαSer as acceptor; assay type: biochemical; settings: 1 equivalent of Neu5Ac and 1.5 equivalents of CTP
Text: as §1
In this system, CTP and Neu5Ac were used by NmCSS for the formation of CMP-Neu5Ac in situ (see also, Yu and Chen, et al. Bioorg. Med. Chem. 2004, 12, 6427-6435). CMP-Neu5Ac was used as the donor substrate for Psp26ST(15-501)-His6 or its mutants. […] For example, using 1 equivalent of Neu5Ac and 1.5 equivalents of CTP in the one-pot two-enzyme (OP2E) reaction (white bars in FIG. 6) improved the GalNAcαSer α2-6-sialylation reaction yields from less than 6% (1 equivalent CMP-Neu5Ac was used) (FIG. 5B) to 32-51% for W365A, W365G, W365S mutants. Similarly, the OP2E reaction improved the GalNAcαSer α2-6-sialylation reaction yields from 40% and 37% to 75% and 67% for A366G mutant and the wild-type enzyme, respectively. Increasing the concentrations of Neu5Ac and CTP to 2.5 and 5.0 equivalents further improved the reaction yields to more than 67% for Psp26ST(15-501)-His6 and its mutants (black bars in FIG. 6). […]

[4] = Sialyltransferase activity assay, GalNAcαSer as acceptor (HPLC); assay type: biochemical; settings: 1 equivalent CMP-Neu5Ac was used; no NmCSS
Method: When LacβMU was used as an acceptor, the assay was performed in duplicate in 10 μL of Tris-HCl buffer (100 mM, pH 8.0) containing CMP-Neu5Ac (1 mM), LacβMU (1 mM), MgCl2 (20 mM), wild-type Psp2,6ST(15-501)-His6 or its mutant (0.3 μM). When an α-GalNAc-terminated acceptor was used, the assay was performed in duplicate in 10 μL of Tris-HCl buffer (100 mM, pH 8.0 for GalNAcαSer/Thr) or NaOAc-HOAc (100 mM, […]), MgCl2 (20 mM), wild-type Psp2,6ST(15-501)-His6 or its mutant (3.0 μM). Reactions were allowed to proceed at 20° C. for 20 min and stopped by adding 10 μL of cold ethanol. The analysis of sialylated product conversion was performed using the HPLC system as described above for sialyltransferase activity assay. The 4-methylumbelliferone (MU)-labeled fluorescent acceptor and the product formed were detected with excitation at 325 nm and emission at 372 nm. The 2-aminobenzoic acid (2AA)-labeled fluorescent acceptors and the products formed were detected with excitation at 315 nm and emission at 400 nm. The 9-fluorenylmethylcarbamate (Fmoc)-labeled fluorescent acceptors and the products formed were detected with excitation at 262 nm and emission at 313 nm.

B1: Psp26ST(15-501)-His6: recombinant Photobacterium sp. JH-ISH-224 α2-6-sialyltransferase, residues 15-501, C-terminal His6, wild-type; SEQ ID NO: 23 (protein)
chain: CNNSEENTQSIIKNDINKTIIDEEYVNLEPINQSNISFTKHSWVQTCGTQQLLTEQNKESISLSVVAPRLDDDEKYCFDFNGVSNKGEKYITKVTLNVVAPSLEVYVDHASLPTLQQLMDIIKSEEENPTAQRYIAWGRIVPTDEQMKELNITSFALINNHTPADLVQEIVKQAQTKHRLNVKLSSNTAHSFDNLVPILKELNSFNNVTVTNIDLYDDGSAEYVNLYNWRDTLNKTDNLKIGKDYLEDVINGINEDTSNTGTSSVYNWQKLYPANYHFLRKDYLTLEPSLHELRDYIGDSLKQMQWDGFKKFNSKQQELFLSIVNFDKQKLQNEYNSSNLPNFVFTGTTVWAGNHEREYYAKQQINVINNAINESSPHYLGNSYDLFFKGHPGGGIINTLIMQNYPSMVDIPSKISFEVLMMTDMLPDAVAGIASSLYFTIPAEKIKFIVFTSTETITDRETALRSPLVQVMIKLGIVKEENVLFWA
modifications: C-terminal His6; Synthetic Psp26ST(15-501) WILD TYPE
expression level, purified by Ni2+-NTA column [1]: 18-40 mg per liter | yield of Neu5Acα2-6GalNAcαThr from GalNAcαThr, OP2E [2]: 88% | GalNAcαSer α2-6-sialylation reaction yield, OP2E [3]: 67% | GalNAcαSer α2-6-sialylation reaction yield, sialyltransferase alone (FIG. 5B) [4]: 37%

B2: A366G: Photobacterium sp. JH-ISH-224 α2-6-sialyltransferase residues 15-501, A366G point mutation, C-terminal His6; SEQ ID NO: 2 (protein)
chain: CNNSEENTQSIIKNDINKTIIDEEYVNLEPINQSNISFTKHSWVQTCGTQQLLTEQNKESISLSVVAPRLDDDEKYCFDFNGVSNKGEKYITKVTLNVVAPSLEVYVDHASLPTLQQLMDIIKSEEENPTAQRYIAWGRIVPTDEQMKELNITSFALINNHTPADLVQEIVKQAQTKHRLNVKLSSNTAHSFDNLVPILKELNSFNNVTVTNIDLYDDGSAEYVNLYNWRDTLNKTDNLKIGKDYLEDVINGINEDTSNTGTSSVYNWQKLYPANYHFLRKDYLTLEPSLHELRDYIGDSLKQMQWDGFKKFNSKQQELFLSIVNFDKQKLQNEYNSSNLPNFVFTGTTVWGGNHEREYYAKQQINVINNAINESSPHYLGNSYDLFFKGHPGGGIINTLIMQNYPSMVDIPSKISFEVLMMTDMLPDAVAGIASSLYFTIPAEKIKFIVFTSTETITDRETALRSPLVQVMIKLGIVKEENVLFWA
modifications: C-terminal His6; Synthetic Psp26ST(15-501) A366G
expression level ([1]; general description): 72 to 110 mg/L | expression level, purified by Ni2+-NTA column [1]: 72-110 mg per liter | yield of Neu5Acα2-6GalNAcαThr from GalNAcαThr, OP2E [2]: 93% | GalNAcαSer α2-6-sialylation reaction yield, OP2E [3]: 75% | GalNAcαSer α2-6-sialylation reaction yield, sialyltransferase alone (FIG. 5B) [4]: 40%
